Assay results reported in IntAct's records for PubMed 27071417.

B1: Caspase recruitment domain-containing protein 14 (Homo sapiens), Q9BXL6-1 (parent)
chain: MGELCRRDSALTALDEETLWEMMESHRHRIVRCICPSRLTPYLRQAKVLCQLDEEEVLHSPRLTNSAMRAGHLLDLLKTRGKNGAIAFLESLKFHNPDVYTLVTGLQPDVDFSNFSGLMETSKLTECLAGAIGSLQEELNQEKGQKEVLLRRCQQLQEHLGLAETRAEGLHQLEADHSRMKREVSAHFHEVLRLKDEMLSLSLHYSNALQEKELAASRCRSLQEELYLLKQELQRANMVSSCELELQEQSLRTASDQESGDEELNRLKEENEKLRSLTFSLAEKDILEQSLDEARGSRQELVERIHSLRERAVAAERQREQYWEEKEQTLLQFQKSKMACQLYREKVNALQAQVCELQKERDQAYSARDSAQREISQSLVEKDSLRRQVFELTDQVCELRTQLRQLQAEPPGVLKQEARTREPCPREKQRLVRMHAICPRDDSDCSLVSSTESQLLSDLSATSSRELVDSFRSSSPAPPSQQSLYKRVAEDFGEEPWSFSSCLEIPEGDPGALPGAKAGDPHLDYELLDTADLPQLESSLQPVSPGRLDVSESGVLMRRRPARRILSQVTMLAFQGDALLEQISVIGGNLTGIFIHRVTPGSAADQMALRPGTQIVMVDYEASEPLFKAVLEDTTLEEAVGLLRRVDGFCCLSVKVNTDGYKRLLQDLEAKVATSGDSFYIRVNLAMEGRAKGELQVHCNEVLHVTDTMFQGCGCWHAHRVNSYTMKDTAAHGTIPNYSRAQQQLIALIQDMTQQCTVTRKPSSGGPQKLVRIVSMDKAKASPLRLSFDRGQLDPSRMEGSSTCFWAESCLTLVPYTLVRPHRPARPRPVLLVPRAVGKILSEKLCLLQGFKKCLAEYLSQEEYEAWSQRGDIIQEGEVSGGRCWVTRHAVESLMEKNTHALLDVQLDSVCTLHRMDIFPIVIHVSVNEKMAKKLKKGLQRLGTSEEQLLEAARQEEGDLDRAPCLYSSLAPDGWSDLDGLLSCVRQAIADEQKKVVWTEQSPR
partner: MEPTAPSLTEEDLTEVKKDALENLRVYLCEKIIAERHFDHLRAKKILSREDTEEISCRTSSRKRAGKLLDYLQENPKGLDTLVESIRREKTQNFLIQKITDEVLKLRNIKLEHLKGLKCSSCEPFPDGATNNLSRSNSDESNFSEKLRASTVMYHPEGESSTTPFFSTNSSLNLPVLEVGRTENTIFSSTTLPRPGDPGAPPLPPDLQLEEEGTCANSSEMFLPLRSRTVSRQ
B2: Caspase recruitment domain-containing protein 14 (Homo sapiens), Q9BXL6-2 (parent)
chain: MGELCRRDSALTALDEETLWEMMESHRHRIVRCICPSRLTPYLRQAKVLCQLDEEEVLHSPRLTNSAMRAGHLLDLLKTRGKNGAIAFLESLKFHNPDVYTLVTGLQPDVDFSNFSGLMETSKLTECLAGAIGSLQEELNQEKGQKEVLLRRCQQLQEHLGLAETRAEGLHQLEADHSRMKREVSAHFHEVLRLKDEMLSLSLHYSNALQEKELAASRCRSLQEELYLLKQELQRANMVSSCELELQEQSLRTASDQESGDEELNRLKEENEKLRSLTFSLAEKDILEQSLDEARGSRQELVERIHSLRERAVAAERQREQYWEEKEQTLLQFQKSKMACQLYREKVNALQAQVCELQKERDQAYSARDSAQREISQSLVEKDSLRRQVFELTDQVCELRTQLRQLQAEPPGVLKQEARTREPCPREKQRLVRMHAICPRDDSDCSLVSSTESQLLSDLSATSSRELVDSFRSSSPAPPSQQSLYKRVAEDFGEEPWSFSSCLEIPEGDPGALPGAKAGDPHLDYELLDTADLPQLESSLQPVSPGRLDVSESGVLMRRRPARRILSQVTMLAFQGDALLEQISVIGGNLTGIFIHRVTPGSAADQMALRPGTQIVMVDYEASEPLFKAVLEDTTLEEAVGLLRRVDGFCCLSVKVNTDGYKRLLQDLEAKVATSGDSFYIRVNLAMEGRAKGELQVHCNEVLHVTDTMFQGCGCWHAHRVNSYTMKDTAAHGTIPNYSR
partner: B1 partner

Experiments:
Conditions in all cases: with bcl10_human BCL10, O95999
[1] = variants of: B1
[2] = variants of: B1; remark: listed apart in the source
[3] = variants of: B2; remark: listed apart in the source
[4] = variants of: B2; remark: listed apart in the source

Variant | effect of a mutation on the interaction [1] | effect of a mutation on the interaction [2] | effect of a mutation on the interaction [3] | effect of a mutation on the interaction [4]
E138A | with no effect | increasing interaction strength | – | –
E138A | – | – | increasing interaction strength | with no effect
G117S | – | – | increasing interaction strength | with no effect
